A short description of this data set: soluble on expression in E. coli; label from the status in PepcDB or PDB records.
With “MSLRIGVAGVGKLGEFHTNLLKQIAAEASDVEFSGVFDLNPERLQEIGKKYGVACFSTLEELAASCDAAVIATTTSSHYAIARQLLEARLHLFIEKPITATLEEADKLIRIEQEKGLTIQVGHIERFNPALLAVEPYIGEPMYIQAERLSGFSRRVTDVSVVLDLMIHDIDLVLSLIKSDIRSIAASGVKVFSNELDMATARIEFENGAIANVTASRLSRSKLRKMRFFTRNPKSYASLDFTSGKSEVFRLVPPDQLSSKNPIKNFATKKILEQFGEIQESLKEMALDYVSPDVPKINALKEELEQFIDAIRKGKPAKVTSEEGRRALMVAGKITDEIRNNTADLDEGHHHHHH”, the “soluble on expression in E. coli” value is “soluble”.

As to “MAKHHPLTDWLPTSKKEMEAKGWDEADVILFSGDAYVDHPSFGAAVVGRILEAEGLRVAIVPQPNWRDDLRDFRKLGRPRLFFGVSAGAMDSMVNKYTANRRLRSEDAYTPDRRSDMRPDYPTIVYTRILKELFPDVPVIVGGIEASLRRLTHYDYWQDKLLPGILYQSGADLLIYGMGELPLHEIAQRLIAGEPFDSLKSIRQIAYLVPKGKTPVPCENDRHLFSHEECLSDKRKQAQNFREIEIQSNRYEADRILQAVGDSTIVVNPPFPPMSTAQIDQSFDLPYTRLPHPRYKGKIISAYEMIKHSVNVHRGCFGGCAFCTISAHQGKFIASRSEASVLREVKEITEMEDFKGYLSDVGGPSANMYKMQGYDLSICKRCKKPSCIHPNVCPNLNADHRPLLDLLRRIDKNPKIKKSFIGSGVRMDLLLHNYKDKVLKKAADEYTEDLIVKHVSGRLKVAPEHSSDRVLNLMRKPPFRQFAEFTKRFQRINEAHGLRQQLIPYFISSHPGCTEEDMAELAILTKKLDFKLEQIQDFTPTPMTLATEMYYTGYHPYTLQPVYTAIKKEEKMRQHMFFFWYKREEADKIRRELHRIGRPDLIAKLFDRTTSSRNDRHTPPSTQPRKSKSKSRHS”, the “soluble on expression in E. coli” value is “not soluble”.

As to “VTGFGLRLAEAKARRGPLCLGIDPHPELLRGWDLATTADGLAAFCDICVRAFADFAVVKPQVAFFESYGAAGFAVLERTIAELRAADVLVLADAKRGDIGATMSAYATAWVGDSPLAADAVTASPYLGFGSLRPLLEVAAAHGRGVFVLAATSNPEGAAVQNAAADGRSVAQLVVDQVGAANEAAGPGPGSIGVVVGATAPQAPDLSAFTGPVLVPGVGVQGGRPEALGGLGGAASSQLLPAVAREVLRAGPGVPELRAAGERMRDAVAYLAAV”, the “soluble on expression in E. coli” value is on record as “not soluble”.

Turning to “MSLNQQKKQAPVELKVGQTFPLTIKRLGINGEGVGYFKKKVVFVPGALPGEEVVVQATKVQPKFSEGRIKKIRKASEHRVAPPCPVYEQCGGCQLQHLAYSQQLREKRDIVIQSLERHTKFKVENMEIKETIGMDNPWNYRNKSQFQIGRSQSGSIIAGLYGLDSHDIVPIKDCIVQHPATNKTTGIVRRILEDFNVSVYNERKRKGDVRTIVTRVGFETGEVQVVLVTAKETLPHKEEIVKAIQKRLPEVKSIIQNVNGAKTSVIFGEKTKQLAGKTVIQEVLGDVSFELSARAFFQLNPEQTVKLYDEVKKAAQLTGKEKVVDAYCGVGTIGMWVADGAKEVRGMDVIKESIDDAKKNAKKHGMANATYVTGTAEHWLPKWTKEGFRPDVVIVDPPRTGCDSTFLDTIKKVKPKRFVYVSCNPSTLAKDLQTLSKDYRVDYIQPVDMFPQTAHVEAVARLVLKSSNEGHHHHHH”, the “soluble on expression in E. coli” value is listed as “not soluble”.

“MDHSLNSLNNFDFLARSFARMHAEGRPVDILAVTGNMDEEHRTWFCARYAWYCQQMMQARELELEH”: the “soluble on expression in E. coli” value is on record as “soluble”.

On to “MSISFEKLRITLKSVGVPVTRDKAEKGTDYPYIVYSNVSQGKKMASSKVHRRMPYYQISFYTTGTEKDLIALENALEEAGIPYTDFVGIQGDENDDTVTNFYTYVRCIEDGK”, for which the “soluble on expression in E. coli” value is given as “soluble”.

Consider “MAVTGQVKWFNNEKGFGFIEVPGENDVFVHFSAIETDGFKSLEEGQKVSFEIEEGNRGPQAKNVIKL”, for which the “soluble on expression in E. coli” value is on record as “not soluble”.

Turning to “MVERKRWSEEFSEWFNEVIEEAGILDKRYPVKGMNVWLPYGLKIMRNIEKFIHEEMERTGHQEVLFPALIPETEFKKEAEHIAGFEGEVFWVTHAGHEPLDVRLVLRPTSETAMYSMFALWIRSHADLPFKVYQIVNVYRYETKHTRPLIRVREISRFFEAHTAHADFEDAERQIKEDLEIFDNLMRKLALAYIISKRPEWDKFPGAFYSLGAEVVMPDGRTLQIGTMHNYKQNFSKAYNILYEKEDGTHDYVHQTTFGMSERLLAAVIAIHGDDRGMVLPPTIAPIQVVIVPIPKKGSEEEVYSYAKGIEEELRDAGIRVYLDLRDKRPGWKFYDWELKGVPVRVEVGPIDVQNSTVVLARRDKLEKITVKREELVDKVRELFEDIMEFLYERANEWLESHIKRVDTLEEAKAVFEDRRGIVEIPWCGEESCGLKMEEELEAKMLGIPYPEEKAKAPEGSKCPVCGREAKFIARFARTY”, the “soluble on expression in E. coli” value is “soluble”.

“MSDESPAFALHSGSSRQRKSLEFRFQQSPRWAPYSSASDGNEQKTSLVNNSLTRPNSSNPQCLNEENGFDRDSTAISTSFRSLLSLSESSVPWETPTNNQSSSLTHCSYPRVFCNPVSVCENPEPDHTQEDSSTNPGSSIMMSTRNHQGSPVEEEVSPNSSSNDMLLDVERSNDTEVANPRSEQGSMTHQRCGICKKLLSQKSPWSSYKILRSRDMPATGVFPCHHVYHVECLDKATPTAQTRDPSCPVCSNTIGVMEQPLIAPETLQMALRSLRRSRTALELETVRVPSNDNQRRHNTRRSHKWDKLSCCLNISFSSSS”: the “soluble on expression in E. coli” value is given as “soluble”.

“DLVIIVDDERRIVDVNAAATALFDGDQNTLLGRSLPQASPTLAETVPGPGERTQTETALERDGSVRYYDVRVIPLYRAYGVVSGHLISLRD”: the “soluble on expression in E. coli” value was “not soluble”.

As to “GPGSMLRGTRLMLMMQLHSLPTPNPSCYTFHIPSSTYDNFIPDGQTCDVAHMGLAWVHPLSQGIFEQYPQEVASVFIAPRHTSITVHPHVDWNKLEWSISSFIGHYLVFTNACFPAAAEYALLEDDLVIHEDDSEVLQCIKELVREQVRPMVQRDGGDVKLLNFNEKTGVVSLAMLGACRTCPSSQNTLKDGVERLLKHFLPEVKEVVEAKGHAFYEEYGLLFDSEKALREEAARVDAVRRRKISIYTTAPLMPFEALNEPDGDE”, the “soluble on expression in E. coli” value is “not soluble”.

For “MSLIYTGRPMLGTERIRGLTIKIFLPLMELLGRVMGVGREEVRHSFIKVNNELVRSRGGRYTPDELLILVPHCLQSSRCEIRLTYDMNHCKRCGKCPIRDLLALRDRYGVSLAIATGGTIARRIVVQTRPKLIIAVACERDLASGIQDTHPIPVYGVLNERPNGPCLDTLVPMQRLEAALRHFLRDVPVSAGGAPDESRRGRDAAAAFGKAQGPECRVTQGSSQRRGSDGEGHHHHHH”, the “soluble on expression in E. coli” value is listed as “not soluble”.

As to “MNYSLRQLRIFITVAQAKSFSRAGDRIGLSQSAVSHSVKELERQTGVRLLDRTTREVVLTEAGQQLATRLERVLDELNSILRDAGRVGTQLTGTVRVAASQTISAHLIPQCIAQSNSLYPAIDFVLHDRPQQWVLESIRQGEVDFGIVIDPGAAVDLQCEAILSEPFLLLCRQDHPLAHQEWVSWQDLKQASLVLQDYASGSRPLIDAALAHFAIEADIVQEIGHPATLFPMVEAGIGISVLPALALPLPQGSHLQVKRLTPVVERQLMLARRKNRSLSTAAQALWDVVRTQASELTAARAKDPLYQL”, the “soluble on expression in E. coli” value is “not soluble”.

With “MSMKQAEFIQAKGYQARVTRTARAKTASIKVEEGMVSVVVPKALPIERIERILQEKHQWIIDKIALHKGLITSSEKQFVSGEAMPYLGRNYRLKVHAGSFEPVKLVQGRLVVIVPEGSVRSNLVREALIGWYKRSALLKLREKVRRYAKVIGVTPKSVNIKTFKSRWGSCNPKGDLDFNWIIVMAPNRIVDYVVVHELCHLKQLDHSPLFWKEVERVMPDYAECKEWLKNNAPKLTFLEHHHHHH”, the “soluble on expression in E. coli” value is “soluble”.

Consider “MYAAYQTNGPARPIARTAAFTKEDDLLVDMARQNNLRGRILTYCVAGTFGLLSPNYLHASAATANWDINQIEISGLSESSVGAISESARDIAHIRAVTKISVSELSRVFGVSRQAVHEWIKGGTLSQRNAQRLSELARATDVFIEAEIEASPQVFRRKIAGGQSILDAVRENGNAVELAKTLAATLVRESQQRQRLAARLAGRSATPGTSTEFGSPHLDEDA”, for which the “soluble on expression in E. coli” value was “not soluble”.

Regarding “MSLHPHLNANLEGGVLTLAINRPEAKNALYGELYLWIAKALDEADQNKDVRVVVLRGAEHDFTAGNDMKDFMGFVQNPNAGPAGQVPPFVLLKSAARLSKPLIIAVKGVAIGIGVTILLQADLVFADNTALFQIPFVSLGLSPEGGASQLLVKQAGYHKAAELLFTAKKFNAETALQAGLVNEIVEDAYATAQATAQHLTALPLASLKQTKALMKHDLDQIIECIDHEAEIFMQRVQSPEMLEAVQAFMQKRQPDFSQEGHHHHHH”, the “soluble on expression in E. coli” value is recorded as “soluble”.

In the case of “MGSDKIHHHHHHMTGKLPKACVIGAGCSGFTTIKRLKDYGIPYDCFEMSDEVGGNWYYKNPNGLSACYESLHIDTSKWRLAFEDFPVPKDWPDFPHHAQLFQYFKDYVDHFGLRPTITFNTKVESAKRTADGLWAVTLSGGETQFYDVLFVCNGHHWDPRVPEYPGEFDGPAFHAHAYCDPFDPVDMRGKNVVVVGMGNSAMDIASELSQRPIAKNLWVSARRGVWVFPKYLNGKPADKTALPAWMPRKLGVALSRSVLKKTIGRMEDYGLPKPDHEPLEAHPSVSGEFLTRAGCGDIKFKPAIKALEGKRVRFTDDSVEDVDAIVFATGYKISFPFFDDPALLPDADHRLPLFKRMMKPEVPNLFYMGLAQPLPTLVNFAEQQAKLAAAYLAGQYALPPPAEMARITAKDEHRHTGHFYDSARHTIQVDFNVYCADLKKEIAKGEARARNAGGKLPVAARAEGQALAAE”, the “soluble on expression in E. coli” value was “not soluble”.

Turning to “MSVDKSPVYEVKAVPVEKVLANDYNPNVVAPPEMKLLELSIWEDGFTMPCVCYYNKEEDNYILVDGYHRYTVLKTSKRIYKRENGLLPIVVIDKDLSNRMSSTIRHNRARGMHN”, the “soluble on expression in E. coli” value is “soluble”.

On to “MAHHHHHHMCTTNLENLVVDSVTRTGNNNASNTFLGDVLLASNKESQNITQYHPGVSSKDQPDVCGDVRYSFADIADIIRGTDVWSKQSQQMLLQGYLEQTFGKIKDKFKGTEKYDSDSHHPQIL”, for which the “soluble on expression in E. coli” value was “not soluble”.

As to “MGSDKIHHHHHHMSNAEWLNALETPFLLIDEFRFQRNIDRLYQRTKNLGSQVRPHLKTLRSIEAGRYLLKDSASPATVSTLAEAEAFAGAGYTNLLYAVGIAPHKLPRIANLIHKGVNLHILLDSVEQARAVTDYALANNVTFSVFIEIDCDGHRGGIPPESDALLELAQQIDGNGATLTGLLAHAGESYACRTDEAIRAAARAECAAINIAGRRVRALGIACPVLSVGATPTAHFAEDLTGITEVRAGVFTTFDLVMKNVGVCSLDDIALSVVSTVIGHNREKGWVFIDAGWMALSRDRGTASQAKDYGYGLVCDLHGSPYHDLCVTVTNQEHGIIALPTDSGFSVDNFPVGTRLRILPNHACATAAMHQHYQVLKSHRHEQETWQRITGW”, the “soluble on expression in E. coli” value was “not soluble”.

Regarding “DPSVVLQMAEGPATYEQAPAGAPPANDPQARFVAKVLGETEDTWGAIFTQSLNRNYVPPKLVLFRGATPTACGTGQAAMGPFYCPGDSKVYIDLGFFDEMERRLNAPGDFAQAYVIAHEVGHHVQHLLGVSEQVDRLRQRNPAQANALSVRMELQADCFAGLWARRADQARNILESGDIEEGLNAASAIGDDTLQKKSQGYVVPDAFTHGSSAQRVRWFKRGLESGDLRQCDTF”, the “soluble on expression in E. coli” value is “not soluble”.

“SGWVWNQFFVLEEYTGTDPLYVGKLHSDMDRGDGSIKYILSGEGAGIVFTIDDTTGDIHAIQRLDREERSQYTLRAQALDRRTGRPMEPESEFIIKIQD”: the “soluble on expression in E. coli” value is “soluble”.

These data come from the DeepSol protein solubility set.
